Target: the molecule itself
Assay: cross-linking

B1: mouse Kcc1 K-Cl cotransporter (natural protein, UniProt Q9JIS8 1-1085, looked up)
chain: MPHFTVVPVDGPRRGDYDNLEGLSWVDYGERAEREDSDGQGNHRENSPFLCPLDASRGNDYYDRNLALFEEELDIRPKVSSLLGKLVSYTNLTQGAKEHEEAESGEGGRRRAAKAPSMGTLMGVYLPCLQNIFGVILFLRLTWMVGTAGVLQALLIVLICCCCTLLTAISMSAIATNGVVPAGGSYFMISRSLGPEFGGAVGLCFYLGTTFAAAMYILGAIEILLTYIAPPAAIFYPSGTHDMSSATLNNMRVYGTIFLTLMTLVVFVGVKYVNKFASLFLACVIISILSIYAGGIKSIFDPPVFPVCMLGNRTLSRDQFDICAKTVVVDNETVATRLWTFFCHSPNLTADSCDPYFLLNNVTEIPGIPGAAAGVLQENLWSAYLEKGEVVEKHGLPSTDTLGLKESLSLYVVADIATSFTVLVGIFFPSVTGIMAGSNRSGDLRDAQKSIPVGTILAIVTTSLVYFSSVILFGACIEGVVLRDKYGDGVSRNLVVGTLAWPSPWVIVVGSFFSTCGAGLQSLTGAPRLLQAIAKDNIIPFLRVFGHGKANGEPTWALLLTALIAELGILIASLDMVAPILSMFFLMCYLFVNLACAVQTLLRTPNWRPRFKYYHWTLSFLGMSLCLALMFVSSWYYALVAMLIAGMIYKYIEYQGAEKEWGDGIRGLSLSAARYALLRLEEGPPHTKNWRPQLLVLLKLDEDLHVKYPRLLTFASQLKAGKGLTIVGSVIQGSFLESYGEAQAAEQTIKNMMDIEKVKGFCQVVVASKVREGLAHLIQSCGLGGMRHNSVVLGWPYGWRQSEDPRAWKTFIDTVRCTTAAHLALLVPKNIAFYPSNHERYLDGHIDVWWIVHDGGMLMLLPFLLRQHKVWKKCRMRIFTVAQMDDNSIQMKKDLAIFLYHLRLEAEVEVVEMHNSDISAYTYERTLMMEQRSQMLRQMRLTKTERDREAQLVKDRHSALRLESLYSDEEEESVAGADKIQMTWTRDKYMAEPWDPSHAPDNFRELVHIKPDQSNVRRMHTAVKLNEVIVTRSHDARLVLLNMPGPPKNSEGDENYMEFLEVLTEGLERVLLVRGGGREVITIYS
  stoichiometry N: ~2
